The data set in a line: protein stability index of a GFP-peptide fusion (GPS, HEK-293T) (PSI 1-6); higher = more stable.
The mark [1] stands for this setting: treatment: DMSO, c terminus: a fixed tail appended.
[2] abbreviates: treatment: MLN4924 1 uM, 8 h, c terminus: a fixed tail appended.

Experimental findings from the supplement of paper PMC10567573 are described below.

± gives the standard deviation.
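Further: 24-mer peptide tiles fused after GFP, lentivirally expressed, FACS-sorted into six equal bins by GFP/DsRed ratio, decoded by Illumina sequencing, PSI is the read-weighted mean bin number.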

Turning to DVHHGQGTQFTFDQDPSVLYFSIH [HDAC6], the protein stability index turned out to be 2.04 ± 0.34 under setting [1] and 2.02 ± 0.34 under setting [2].
For the sequence ISGVTKAISSPTVSRLTDTTKFTG [TPPP], the protein stability index under setting [1] amounted to 3.89 ± 0.27 and the protein stability index under setting [2] was 3.85 ± 0.17.
Taken in the same sequence, the figures for PGPGIGGDAHFDEDERWTNNFREY [MMP1] were 4.14 ± 0.39 and 4.2 ± 0.35.
Consider RFLGEGHHRVQENQMDKARRHPQG [CHGB], for which the protein stability index by setting is: under setting [1], 4.5 ± 0.44; under setting [2], 4.62 ± 0.38.
Regarding YMLFDPKDSVMQQNLVYYRFHRAR [P3H4], the protein stability index worked out at 2.26 ± 0.25 under setting [1] and 2.27 ± 0.53 under setting [2].
Take FVGAIFNGLTLLILGVIGLFTIPL [RTN2]: the protein stability index by setting is: under setting [1], 2.02 ± 0.11; under setting [2], 2.27 ± 0.42.
In the same order, the values of LIHQHEKVIYLDDDVIVQGDIQEL [GLT8D2] are 3.6 ± 0.26 and 3.59 ± 0.22.
VAMDTEFPGVVARPIGEFRSNADY [CNOT7] showed a protein stability index under setting [1] of 3.73 ± 0.38 and a protein stability index under setting [2] of 3.78 ± 0.37.
Taken in the same sequence, the figures for KMSLYSEADSGYGSYGGFASAPTT [TRIM9] were 3.15 ± 0.36 and 3.18 ± 0.12.
In the same order, the values of GLKADTLKERYQKIGDTKRNTPIE [CSNK1G1] are 4.36 ± 0.26 and 4.53 ± 0.12.
As for AEFEKLSDQVKISEEALRADGFGD [SAT2], the protein stability index was 5.33 ± 0.11 under setting [1] and 5.45 ± 0.15 under setting [2].
Consider RAPVVGVRVNVLLSRYLIEPCGPG [DLC1], for which the protein stability index stood at 2.45 ± 0.7 under setting [1] and 2.79 ± 0.86 under setting [2].
In the same order, the values of TKPTQGASSASEPQGLFVEALSVP [CLPTM1] are 4.13 ± 0.097 and 4.29 ± 0.19.
Taken in the same sequence, the figures for FWEEHKASLGREESRAPSPLLHKD [CBY2] were 4.61 ± 0.17 and 4.71 ± 0.21.
In the same order, the values of PDAPDHTSETSHSPLYADPYTPPA [PLEKHN1] are 5.22 ± 0.3 and 5.01 ± 0.28.
In the case of LMLAGMGLHYIAFRKVKQMHLNFM [DNAJC4], the protein stability index runs as follows: under setting [1], 2.45 ± 0.82; under setting [2], 2.41 ± 0.33.
Consider QAGSSQGLSLCQFQNFSLHDPLYG [LPCAT4], for which the protein stability index under setting [1] was 3 ± 0.41 and the protein stability index under setting [2] was determined as 2.98 ± 0.31.
Take LESQVQKDGVADSTVISSMPCLLM [C18orf25]: the protein stability index under setting [1] came out at 3.39 ± 0.25 and the protein stability index under setting [2] was determined as 3.54 ± 0.27.
Taken in the same sequence, the figures for PESRSLPSSPLRLGSYKAQKTSRS [PPEF2] were 5.29 ± 0.16 and 5.14 ± 0.24.
Taken in the same sequence, the figures for ALRLAELARRRRRRQARREAEADK [NOP53] were 4.12 ± 0.21 and 4.37 ± 0.82.
For the sequence LYFSIHRYEQGRFWPHLKASNWST [HDAC6], the protein stability index by setting is: under setting [1], 2.77 ± 0.66; under setting [2], 2.73 ± 0.64.
Taken in the same sequence, the figures for ENAGGSPSPEPAGRRAALYVHWPY [RSAD1] were 3 ± 0.4 and 3.23 ± 0.34.
On to VLASFILDDGEIDEIRWKYHSDTT [IQUB], for which the protein stability index by setting is: under setting [1], 2.5 ± 0.23; under setting [2], 2.18 ± 0.3.
Consider TNDSLSLKPSWFDFGFAILGFAYA [MIA2], for which the protein stability index by setting is: under setting [1], 2.99 ± 0.53; under setting [2], 2.49 ± 0.4.
As for LQRLSHSGSRVRVGFRLCNSTGGD [SCNN1D], the protein stability index was found to be 3.14 ± 0.22 under setting [1] and 3.11 ± 0.18 under setting [2].
Regarding GISTGHWSGEVKDKNVQVVELPIV [FUT8], the protein stability index is, setting by setting: under setting [1], 3.8 ± 0.31; under setting [2], 3.9 ± 0.37.
For WDPHNGDILMEFGHLFPPPTPIFA [WSB1], the protein stability index runs as follows: under setting [1], 2.38 ± 0.31; under setting [2], 2.21 ± 0.27.
As to AFMLFRKRLGSMILAFRPRPNYF [GDAP1], the protein stability index is, setting by setting: (treatment: DMSO, c terminus: native) 2.5 ± 0.53; (treatment: MLN4924 1 uM, 8 h, c terminus: native) 2.12 ± 0.47.
Take AGLAELGHRLAQKLQGLENWGQDP [PBXIP1]: the protein stability index turned out to be 2.79 ± 0.17 under setting [1] and 2.85 ± 0.33 under setting [2].
For the sequence IQEQPGQEQVAGGEAQPGLPQEDP [FEM1A], the protein stability index by setting is: under setting [1], 5.58 ± 0.16; under setting [2], 5.57 ± 0.16.
Sequence KLVKVCNGHDCWSLISLSNNTGKN [TENT5D] had a protein stability index under setting [1] of 2.33 ± 0.24 and a protein stability index under setting [2] of 2.34 ± 0.43.
As to TSYKVMVSNDSHTWVTVKNGSGDM [CPXM2], the protein stability index by setting is: under setting [1], 2.8 ± 0.38; under setting [2], 2.94 ± 0.27.
Taken in the same sequence, the figures for DGNSLLSSIECYDPIIDSWEVVTS [KLHL12] were 3.29 ± 0.33 and 3.47 ± 0.47.
In the same order, the values of VAVNNIGRGPPSEPVLTQTSEQAP [PTPRD] are 4.78 ± 0.2 and 5.02 ± 0.49.
In the same order, the values of VEAVAYAPKKELINIKGISEAKAD [RAD51] are 4.49 ± 0.22 and 4.52 ± 0.41.
Turning to TETHVRDWVMWAVNEFSLKGVDFQ [ETS1], the protein stability index came to 2.81 ± 0.94 under setting [1] and 2.72 ± 0.78 under setting [2].
In the same order, the values of SLSNGQGSRVLHVVQTLYPFSSVT [NCK2] are 2.01 ± 0.18 and 2.14 ± 0.21.
As for SADPARGLPRSRDCRVDLGSEVYR [PDLIM4], the protein stability index reads like this: under setting [1], 3.74 ± 0.23; under setting [2], 3.83 ± 0.09.
DKWFRKIKDHFCPFENQFHTEIQI [C8orf76]: the protein stability index reads like this: under setting [1], 2.2 ± 0.54; under setting [2], 2.32 ± 0.42.
In the same order, the values of EQAKKESEDQKRLKQAKELDRERA [CHCHD3] are 5.57 ± 0.24 and 5.48 ± 0.17.
Take PFSSHTYSQASELPTDAVDCMSRE [FBXO34]: the protein stability index runs as follows: under setting [1], 5.25 ± 0.29; under setting [2], 5.01 ± 0.075.
In the same order, the values of TPPHLTSAMAENILAAACESETRK [NOL4L] are 4.16 ± 0.47 and 4.35 ± 0.2.
Turning to TSEDLRLQCDAVNLAFGRRCEELE [TEKT4], the protein stability index runs as follows: under setting [1], 4.51 ± 0.32; under setting [2], 4.71 ± 0.29.
Take EQIAERKRKMVSWEASSLGLVTAA [KMT2E]: the protein stability index under setting [1] worked out at 2.65 ± 0.45 and the protein stability index under setting [2] turned out to be 3.33 ± 0.76.
MWDSKKIGLRQHHCRKCGKAVCGK [WDFY2]: the protein stability index was 3.31 ± 0.15 under setting [1] and 3.58 ± 0.72 under setting [2].
On to LLSVDAFAAPSPATTASPAKVDSS [SNAP91], for which the protein stability index reads like this: under setting [1], 4.86 ± 0.21; under setting [2], 4.87 ± 0.07.
TKMWHPNIYETGDVCISILHPPVD [CDC34]: the protein stability index was 2.23 ± 0.2 under setting [1] and 2.12 ± 0.37 under setting [2].
In the same order, the values of LMKHQTNISELKRTFLETSTDTAV [EPB41L3] are 3.68 ± 0.79 and 3.92 ± 0.38.
EMEKSFREEEKTFWKKYRTFWKED [CCDC70]: the protein stability index runs as follows: under setting [1], 3.77 ± 0.31; under setting [2], 3.67 ± 0.35.
In the same order, the values of QYVITHAKVNILLVENDQQLQKIL [ACSBG2] are 2.5 ± 0.58 and 2.13 ± 0.2.
Sequence YDVAMNRAKDLVELDPEVEGTKPS [GOLPH3L] displayed a protein stability index under setting [1] of 5.54 ± 0.2 and a protein stability index under setting [2] of 5.603 ± 0.052.
In the case of TWLTTPKSTWPRYSKPGLSMRLLE [TCF25], the protein stability index runs as follows: under setting [1], 2.41 ± 0.61; under setting [2], 2.29 ± 0.31.
In the same order, the values of HGQAGQRQDPRPHGPQLPTGIEGN [ZBED2] are 4.91 ± 0.13 and 5.11 ± 0.15.
